According to publication PMC4826628:

Target: Dlx5[Q178P] homeodomain (Homo sapiens, UniProt P56178 137-198, Q178P)
Assay: CD thermal denaturation

Chain of Dlx5[Q178P] homeodomain (P56178 137-198 Q178P): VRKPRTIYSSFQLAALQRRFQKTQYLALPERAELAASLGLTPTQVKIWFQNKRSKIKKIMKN

B1: 14-bp palindromic TAAT duplex (dsDNA)
DNA 1: CGACTAATTAGTCG
DNA 2: CGACTAATTAGTCG
  binding result: binds
